Test [1] concerns the target RSV/A/A2 fusion protein F on the virus (respiratory syncytial virus RSV/A/A2, UniProt P03420 26-574). As to the kind of experiment: cell-based or functional assay.
The target of test [2] is T1, RSV/A/A2 pre-fusion F protein (respiratory syncytial virus RSV/A/A2, UniProt P03420 26-109).
T1 construct: also called RSV A2 pre-fusion F protein; pre-F of RSV type A
As to the kind of experiment: BLI (Octet RED96), antibody captured on AHC sensor; reference MEDI8897. In general terms: Biolayer interferometry detects binding as a change in optical thickness at a sensor tip.

Test [3] concerns the target T2, RSV/B/B9320 pre-fusion F protein (respiratory syncytial virus RSV/B/B9320).
T2 construct: also called pre-F of RSV type B; recombinant DS-Cav1
The test is described as above.

The target of test [4] is T1, RSV/A/A2 pre-fusion F protein. Kind of test: BLI (Octet RED96), antibody captured on AHC sensor; reference Palivizumab.
Test [5] deals with T2, RSV/B/B9320 pre-fusion F protein. Described as above.

B1: 4F1En1 (VH-S75R) (antibody, V domains shown)
VH: QVQLVESGGGVVQPGRSLRLSCAASGFSFYSYSVHWVRQAPGKGLEWVADVVYDGNHQHYTDSVKGRFTISRDTRKNTVYLQMGSLRAEDTALYYCTARSLVITLAGAGRDDYWGQGTTVTVSS
VL: DIVMTQSPLSLPVTPGEPASISCRSSQSLLHSNGYTYLDWYLQKPGQSPQLLIFLGSSRASGVPDRFSGSGSGTDFTLKISRVEAEDVGVYYCVQDLQTSLTFGGGTKLEIKR
notes: It is a human IgG captured through Fc
As to B1, in test [1], the “IC50 against RSV/A2, fold lower than palivizumab” value was found to be 62 fold and the “neutralization potency for RSV/A/A2 strain, fold against 4F1-WT” value turned out to be 3 times. Further, the “fold higher affinity compared to MEDI8897” value in test [2] is at least 10 fold. Further, in test [3], the “fold higher binding affinity compared to MEDI8897” value is at least 100 fold. In test [4], the “fold higher affinity compared to PVZ” value is at least 10 fold. Further, the “fold higher binding affinity compared to PVZ” value in test [5] was at least 100 fold.

Values taken from patent US20240409620A1 (CENTER FOR EXCELLENCE IN MOLECULAR CELL SCIENCE CHINESE …, published 2024).
